# Measurements: the supplement of paper PMC7877785
# ± gives the uncertainty stated by the source.
# Assay: self-splicing fitness, log relative to wild type (ln ratio); higher = more splicing; Tetrahymena group I intron in knt gene, E. coli kanamycin selection, DiMSum; sequences stand for … in CUCUCU…GGAGGGAAAAGUUAUCAGGCAUGCACCUGGUAGCUAGUCUUUAAACCAAUAGAUUGCAUCGGUUUAAAAGGCAAGACCGUCAAAUUGCGGGAAAGGGGUCAACAGCCGUUCAGUACCAAGUCUCAGGGGAAACUUUGAGAUGGCCUUGCAAAGGGUAUGGUAAUAAGCUGACGGACAUGGUCCUAACCACGCAGCCAAGUCCUAAGUCAACAGAUCUUCUGUUGAUAUGGAUGCAGUUCACAGACUAAAUGUCGGUCGGGGAAGAUGUAUUCUUCUCAUAAGAUAUAGUCGGACCUCUCCUUAAUGGGAGCUAGCGGAUGAAGUGAUGCAACACUGGAGCCGCUGGGAACUAAUUUGUAUGCGAAAGUAUAUUGAUUAGUUUUGGAGUACUCGUGGUCG
# Procedure, shortened: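 A randomised library covering all eight P1ex-region intron nucleotides was built with the intron in the knt kanamycin-resistance gene on pET-22b(+) and held in E. coli BL21(DE3). Cells were grown overnight at 37°C or 30°C on LB agar, with or without 25 μg/mL kanamycin, plus 100 μg/mL carbenicillin, 50 μM IPTG and 0.2% rhamnose, and pooled colonies were amplicon-sequenced on an Illumina HiSeq 2500. DiMSum fitness is the error-weighted combination of wild-type-normalised replicate fold changes, kanamycin versus none.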
Sequence,self-splicing fitness (ln) (30 °C),self-splicing fitness (ln) (37 °C)
CGACAGCAAUAUUACGCAGU,-3.75 ± 0.22,-2.05 ± 0.23
CUGCAGCAAUAUUACGUCUG,-2.34 ± 0.16,-0.738 ± 0.17
AGUGAGCAAUAUUACGGACC,-0.918 ± 0.22,-0.539 ± 0.33
AGCCAGCAAUAUUACGACGC,-1.66 ± 0.14,-0.853 ± 0.16
CUGUAGCAAUAUUACGUCUC,-4.07 ± 0.39,
UUAUAGCAAUAUUACGAAAG,-3.47 ± 0.37,-2.69 ± 0.38
CCUGAGCAAUAUUACGCUGU,-4.99 ± 0.46,-2.85 ± 0.23
GCCCAGCAAUAUUACGUGAC,-1.38 ± 0.057,-0.584 ± 0.069
AGUGAGCAAUAUUACGUAGU,-4.14 ± 0.26,-2.82 ± 0.26
UAAAAGCAAUAUUACGGUGG,-2.08 ± 0.088,-1.43 ± 0.089
UGAUAGCAAUAUUACGACUU,-0.653 ± 0.17,-0.431 ± 0.12
GCGAAGCAAUAUUACGAACC,-1.67 ± 0.13,-1.06 ± 0.15
UGACAGCAAUAUUACGUCCA,-0.629 ± 0.061,0.245 ± 0.1
CGAUAGCAAUAUUACGCUGU,-3.12 ± 0.4,-2.15 ± 0.31
UCUCAGCAAUAUUACGCGAA,-2.12 ± 0.17,-1.85 ± 0.21
GUGAAGCAAUAUUACGAAAC,-1.66 ± 0.11,-0.943 ± 0.14
AAAAAGCAAUAUUACGACGU,0.102 ± 0.054,0.768 ± 0.067

Sequence,self-splicing fitness (ln) (30 °C),self-splicing fitness (ln) (37 °C)
ACUCAGCAAUAUUACGUGGU,-3.75 ± 0.12,-2.75 ± 0.12
GAGAAGCAAUAUUACGUGUU,-2.43 ± 0.098,-1.53 ± 0.14
UUUGAGCAAUAUUACGCGGA,-3.43 ± 0.35,-1.28 ± 0.17
UGUAAGCAAUAUUACGUGGU,-3.15 ± 0.13,-3.76 ± 0.27
UUGUAGCAAUAUUACGUCCG,-1.24 ± 0.12,-0.388 ± 0.18
GGAUAGCAAUAUUACGGGGG,-2.14 ± 0.19,-1.8 ± 0.35
GUAAAGCAAUAUUACGCACC,-0.664 ± 0.49,
CUGAAGCAAUAUUACGCUCC,-2.74 ± 0.34,
UCAGAGCAAUAUUACGAAUA,-2.84 ± 0.32,-2.14 ± 0.38
ACCCAGCAAUAUUACGCAUU,-0.546 ± 0.043,0.216 ± 0.061
UGACAGCAAUAUUACGGGCA,-0.0919 ± 0.079,0.689 ± 0.093
ACGCAGCAAUAUUACGGGAC,-3.2 ± 0.22,-1.84 ± 0.2
AGAUAGCAAUAUUACGGCAC,-1.52 ± 0.16,-0.639 ± 0.23
CGACAGCAAUAUUACGGUCG,-3.33 ± 0.14,-2.48 ± 0.15
AAAUAGCAAUAUUACGUGAG,-1.19 ± 0.078,-0.609 ± 0.11
UAAUAGCAAUAUUACGAUUG,0.193 ± 0.068,0.0133 ± 0.076
GGAAAGCAAUAUUACGCUUG,-2.12 ± 0.14,-1.15 ± 0.21
